Binding data for one substance are collected here from paper PMC12538065.

This data set relates to Zn(II)-bound Fur homodimer (Escherichia coli (expressed in MC4100)). Description: HinfI restriction site protection. The following applies: 0.5 uM (as monomer) sufficient to protect, not a Kd, 2 mM Mg2+, 3.2 nM pUC19-iuc, 20 mM Tris pH 8.0, 150 mM NaCl, 2 mM MgCl2, 0.1 mg/ml BSA, 10 min at room temperature, then HinfI (1 unit) 37 C 10 min.

For the substance pUC19-iuc (Fur-box of iucABCD promoter), the binding is 0.5 µM.
